Literature values, collected in paper PMC12390062.

What was measured:
[1] = target: nicotinic acetylcholine receptor α7 (Gallus gallus) (UniProt P22770)
[2] = target: nicotinic acetylcholine receptor α-γ interface α-γ interface (Mus musculus) (UniProt P04756)
[3] = target: nicotinic acetylcholine receptor α-δ interface α-δ interface (Mus musculus) (UniProt P04756)

Substance	Kd [1]	Kd [2]	Kd [3]
wNTX5 (Group 3b (ii) toxin) (from UniProt O42255)	90 µM		
α-conotoxin MI (from UniProt P01521)		20 µM	0.00062 µM
